Experimental data taken from patent publication US20240042020A1.

Target: human GARP-TGF-β1 complex (human) (UniProt Q14392)

minimal concentration that maximally inhibits TGF-β1 release and signaling (reporter assay): 0.8 µg/mL
Substance: livmoniplimab (antibody)
